Test results as given in publication PMC6212729 (Nucleic Acids Research, 2018).

B1: Human WT emerin fragment from amino acid 1 to amino acid 187 (EmN) (domain or fragment, UniProt P50402 1-187, looked up)
chain: MDNYADLSDTELTTLLRRYNIPHGPVVGSTRRLYEKKIFEYETQRRRLSPPSSSAASSYSFSDLNSTRGDADMYDLPKKEDALLYQSKGYNDDYYEESYFTTRTYGEPESAGPSRAVRQSVTSFPDADAFHHQVHDDDLLSSSEEECKDRERPMYGRDSAYQSITHYRPVSASRSSLDLSYYPTSSS

Assays:
[1] = biological target: Human Barrier-to-Autointegration Factor (BAF) with all cysteines mutated in alanine (human) (UniProt O75531); experiment: crystal structure
[2] = biological target: Human Barrier-to-Autointegration Factor (BAF) with all cysteines mutated in alanine (human) (UniProt O75531); experiment: ITC
[3] = biological target: Human Barrier-to-Autointegration Factor (BAF) with all cysteines mutated in alanine (human) (UniProt O75531); experiment: ITC; remark: listed apart in the source
[4] = biological target: the molecule itself; experiment: negative-staining electron microscopy
[5] = biological target: B1; experiment: NMR titration
[6] = biological target: T1, GFP-BAF (full length BAF) (UniProt O75531 1-89); experiment: proximity ligation
T1 sequence (looked up): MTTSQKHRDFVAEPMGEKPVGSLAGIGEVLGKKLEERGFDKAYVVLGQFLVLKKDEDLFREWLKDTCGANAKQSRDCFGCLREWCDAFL

Molecule: Human Barrier-to-Autointegration Factor (BAF) with all cysteines mutated in alanine (from UniProt O75531 2-76) (natural protein)
- stoichiometry N [1]: 2

Molecule: LamIgF mutant R471C (from UniProt P02545 411-566) (domain or fragment)
- fold decrease of affinity against LamIgF WT [2]: 5 fold

Molecule: LamIgF mutant A529V (from UniProt P02545 411-566) (domain or fragment)
- fold decrease of affinity against LamIgF WT [2]: 5 fold

Molecule: B1
- Kd [3]: 700 nM
- binding result [4]: binds

B2: Human wild-type lamin A/C fragment from amino acid 411 to amino acid 566 (LamIgF) (domain or fragment, UniProt P02545 411-566, looked up)
chain: GGGSVTKKRKLESTESRSSFSQHARTSGRVAVEEVDEEGKFVRLRNKSNEDQSMGNWQIKRQNGDDPLLTYRFPPKFTLKAGQVVTIWAAGAGATHSPPTDLVWKAQNTWGCGNSLRTALINSTGEEVAMRKLVRSVTVVEDDEDEDGDDLLHHHH
- binding result [5]: binds

B3: FLAG-mature lamin A (aa 1 to aa 646) A529V (natural protein, UniProt P02545 1-646, looked up)
chain: METPSQRRATRSGAQASSTPLSPTRITRLQEKEDLQELNDRLAVYIDRVRSLETENAGLRLRITESEEVVSREVSGIKAAYEAELGDARKTLDSVAKERARLQLELSKVREEFKELKARNTKKEGDLIAAQARLKDLEALLNSKEAALSTALSEKRTLEGELHDLRGQVAKLEAALGEAKKQLQDEMLRRVDAENRLQTMKEELDFQKNIYSEELRETKRRHETRLVEIDNGKQREFESRLADALQELRAQHEDQVEQYKKELEKTYSAKLDNARQSAERNSNLVGAAHEELQQSRIRIDSLSAQLSQLQKQLAAKEAKLRDLEDSLARERDTSRRLLAEKEREMAEMRARMQQQLDEYQELLDIKLALDMEIHAYRKLLEGEEERLRLSPSPTSQRSRGRASSHSSQTQGGGSVTKKRKLESTESRSSFSQHARTSGRVAVEEVDEEGKFVRLRNKSNEDQSMGNWQIKRQNGDDPLLTYRFPPKFTLKAGQVVTIWAAGAGATHSPPTDLVWKAQNTWGCGNSLRTVLINSTGEEVAMRKLVRSVTVVEDDEDEDGDDLLHHHHGSHCSSSGDPAEYNLRSRTVLCGTCGQPADKASASGSGAQVGGPISSGSSASSVTVTRSYRSVGGSGGGSFGDNLVTRSY
- PLA signals as percent of WT lamin A [6]: ~50 % of WT

B4: FLAG-mature lamin A (aa 1 to aa 646) R435C (natural protein, UniProt P02545 1-646, looked up)
chain: METPSQRRATRSGAQASSTPLSPTRITRLQEKEDLQELNDRLAVYIDRVRSLETENAGLRLRITESEEVVSREVSGIKAAYEAELGDARKTLDSVAKERARLQLELSKVREEFKELKARNTKKEGDLIAAQARLKDLEALLNSKEAALSTALSEKRTLEGELHDLRGQVAKLEAALGEAKKQLQDEMLRRVDAENRLQTMKEELDFQKNIYSEELRETKRRHETRLVEIDNGKQREFESRLADALQELRAQHEDQVEQYKKELEKTYSAKLDNARQSAERNSNLVGAAHEELQQSRIRIDSLSAQLSQLQKQLAAKEAKLRDLEDSLARERDTSRRLLAEKEREMAEMRARMQQQLDEYQELLDIKLALDMEIHAYRKLLEGEEERLRLSPSPTSQRSRGRASSHSSQTQGGGSVTKKRKLESTESRSSFSQHACTSGRVAVEEVDEEGKFVRLRNKSNEDQSMGNWQIKRQNGDDPLLTYRFPPKFTLKAGQVVTIWAAGAGATHSPPTDLVWKAQNTWGCGNSLRTALINSTGEEVAMRKLVRSVTVVEDDEDEDGDDLLHHHHGSHCSSSGDPAEYNLRSRTVLCGTCGQPADKASASGSGAQVGGPISSGSSASSVTVTRSYRSVGGSGGGSFGDNLVTRSY
- PLA signals as percent of WT lamin A [6]: ~50 % of WT

B5: FLAG-mature lamin A (aa 1 to aa 646) R527H (natural protein, UniProt P02545 1-646, looked up)
chain: METPSQRRATRSGAQASSTPLSPTRITRLQEKEDLQELNDRLAVYIDRVRSLETENAGLRLRITESEEVVSREVSGIKAAYEAELGDARKTLDSVAKERARLQLELSKVREEFKELKARNTKKEGDLIAAQARLKDLEALLNSKEAALSTALSEKRTLEGELHDLRGQVAKLEAALGEAKKQLQDEMLRRVDAENRLQTMKEELDFQKNIYSEELRETKRRHETRLVEIDNGKQREFESRLADALQELRAQHEDQVEQYKKELEKTYSAKLDNARQSAERNSNLVGAAHEELQQSRIRIDSLSAQLSQLQKQLAAKEAKLRDLEDSLARERDTSRRLLAEKEREMAEMRARMQQQLDEYQELLDIKLALDMEIHAYRKLLEGEEERLRLSPSPTSQRSRGRASSHSSQTQGGGSVTKKRKLESTESRSSFSQHARTSGRVAVEEVDEEGKFVRLRNKSNEDQSMGNWQIKRQNGDDPLLTYRFPPKFTLKAGQVVTIWAAGAGATHSPPTDLVWKAQNTWGCGNSLHTALINSTGEEVAMRKLVRSVTVVEDDEDEDGDDLLHHHHGSHCSSSGDPAEYNLRSRTVLCGTCGQPADKASASGSGAQVGGPISSGSSASSVTVTRSYRSVGGSGGGSFGDNLVTRSY
- PLA signals as percent of WT lamin A [6]: ~50 % of WT

B6: FLAG-mature lamin A (aa 1 to aa 646) K542N (natural protein, UniProt P02545 1-646, looked up)
chain: METPSQRRATRSGAQASSTPLSPTRITRLQEKEDLQELNDRLAVYIDRVRSLETENAGLRLRITESEEVVSREVSGIKAAYEAELGDARKTLDSVAKERARLQLELSKVREEFKELKARNTKKEGDLIAAQARLKDLEALLNSKEAALSTALSEKRTLEGELHDLRGQVAKLEAALGEAKKQLQDEMLRRVDAENRLQTMKEELDFQKNIYSEELRETKRRHETRLVEIDNGKQREFESRLADALQELRAQHEDQVEQYKKELEKTYSAKLDNARQSAERNSNLVGAAHEELQQSRIRIDSLSAQLSQLQKQLAAKEAKLRDLEDSLARERDTSRRLLAEKEREMAEMRARMQQQLDEYQELLDIKLALDMEIHAYRKLLEGEEERLRLSPSPTSQRSRGRASSHSSQTQGGGSVTKKRKLESTESRSSFSQHARTSGRVAVEEVDEEGKFVRLRNKSNEDQSMGNWQIKRQNGDDPLLTYRFPPKFTLKAGQVVTIWAAGAGATHSPPTDLVWKAQNTWGCGNSLRTALINSTGEEVAMRNLVRSVTVVEDDEDEDGDDLLHHHHGSHCSSSGDPAEYNLRSRTVLCGTCGQPADKASASGSGAQVGGPISSGSSASSVTVTRSYRSVGGSGGGSFGDNLVTRSY
- PLA signals as percent of WT lamin A [6]: ~50 % of WT

B7: Human WT emerin fragment from amino acid 67 to amino acid 221 (EmC) (domain or fragment, UniProt P50402 67-221, looked up)
chain: TRGDADMYDLPKKEDALLYQSKGYNDDYYEESYFTTRTYGEPESAGPSRAVRQSVTSFPDADAFHHQVHDDDLLSSSEEECKDRERPMYGRDSAYQSITHYRPVSASRSSLDLSYYPTSSSTSFMSSSSSSSSWLTRRAIRPENRAPGAGLGQDR
- binding result [4]: binds
